In patent publication US6960343B2, “Toll/interleukin-1 receptor adapter protein (TIRAP)” (Yale University School of Medicine, priority 2001, dated 2005):

Legend:
PACT = biological target: T1, PACT (Homo sapiens, UniProt O75569); test: Co-immunoprecipitation with PACT in 293T cells; type: binding; settings: 293T cell lysates
T1 construct: expressed in transfected cells; host or cells: 293T cells
T1 sequence (O75569 1-313): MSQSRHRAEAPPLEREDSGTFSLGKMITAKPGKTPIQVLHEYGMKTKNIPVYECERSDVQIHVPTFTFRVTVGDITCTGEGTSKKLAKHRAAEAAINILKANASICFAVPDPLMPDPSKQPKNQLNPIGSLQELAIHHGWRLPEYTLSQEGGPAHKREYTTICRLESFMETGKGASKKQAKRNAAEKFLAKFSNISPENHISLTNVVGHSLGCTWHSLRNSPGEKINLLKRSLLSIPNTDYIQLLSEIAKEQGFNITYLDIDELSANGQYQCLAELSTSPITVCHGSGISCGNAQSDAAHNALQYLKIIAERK
Procedure: (§1) Because TIRAP may not regulate PKR directly, the interaction between TIRAP and two other proteins, p58 and PACT, was analyzed. p58 is a tetratricopeptide repeat-containing protein that negatively regulates PKR activity (Lee 1994), and PACT is a dsRNA-binding domain-containing protein that activates PKR in response to cellular stress (Patel 19980). Lysates from 293T cells transfected with either p58-encoding vector (3.5 μg) or PACT (3.5 μg) and Flag TIRAP (1.5 μg) were subject to immunoprecipitation analyses followed by SDS-PAGE and immunoblotting with the indicated antibodies.

TIRAP = biological target: T2, TIRAP (Homo sapiens, UniProt P58753); test: Co-immunoprecipitation of HA TIRAP with Flag TIRAP (homodimerization); type: binding; settings: 293T cell lysates
T2 construct: Flag; expressed in transfected cells; host or cells: 293T cells
Source text: (§2) Cells were transfected in the presence (+) or absence (−) of constructs encoding a wild-type portion of TLR4 (TLR4 wt), a mutant derivative thereof (TLR4 mut), wild-type TIRAP (TIRAP), a mutant TIRAP containing a P125H mutation (TIRAP PH), or wild-type MyD88 (MyD88), wherein each construct further encodes a Myc, Flag, or hemaglutanin (HA) tag, as indicated. Antibodies used for immunoprecipitation (IP) or immunoblot (IB) are indicated to the left of each blot.
(§3) To obtain biochemical conformation for a role of TIRAP in the TLR4 signaling pathway, TIRAP-TLR4 protein interactions were evaluated using co-immunoprecipitation experiments. […] Immunocomplexes were washed, separated by SDS-PAGE electrophoresis, and then analyzed by immunoblotting with either anti-myc antibody to look for co-immunoprecipitated TLR4 or anti-Flag antibody to confirm immunoprecipitation of Flag TIRAP or Flag TIRAP P125H. Total cell lysates (35 μg/sample) were likewise analyzed by SDS-PAGE and immunoblotting to confirm equivalent expression of the appropriate proteins in every sample. […]
(§4) Similarly, the interaction between TIRAP and MyD88 was examined. […] Direct interactions between TIRAP and the TIR domain of TLR4 was also detected using in vitro glutathione S transferase (GST) pull-down assays.

TIR domain of TLR4 = biological target: T3, TIR domain of TLR4 (Homo sapiens, UniProt O00206); test: In vitro glutathione S transferase (GST) pull-down assay; type: binding
T3 sequence (O00206 672-815 limits assumed): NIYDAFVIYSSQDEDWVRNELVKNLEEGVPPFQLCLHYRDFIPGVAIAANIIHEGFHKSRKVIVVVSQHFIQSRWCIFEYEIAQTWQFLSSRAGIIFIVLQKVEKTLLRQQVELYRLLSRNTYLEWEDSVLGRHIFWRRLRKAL
Procedure: Similarly, the interaction between TIRAP and MyD88 was examined. 293T cells were transfected with 1.5 μg of either HA-tagged TIRAP (HA TIRAP) alone or in combination with 1.5 μg of either Flag-tagged MyD88 (Flag MyD88), Flag-tagged TIRAP (Flag-TIRAP), or Flag-tagged TIRAP P125H (Flag TIRAP PH). Immunoprecipitation and analyses of immunocomplexes as well as total cell lysates were done as described above. […] Direct interactions between TIRAP and the TIR domain of TLR4 was also detected using in vitro glutathione S transferase (GST) pull-down assays.

MyD88 = biological target: T4, MyD88 (Homo sapiens, UniProt Q99836); test: Co-immunoprecipitation with Flag-tagged MyD88 in 293T cells; type: binding; settings: 293T cell lysates
T4 construct: Flag; expressed in transfected cells; host or cells: 293T cells
Source text: as §2, §3, §4

PKR = test: Co-immunoprecipitation with HA PKR kinase dead mutant in 293T cells; type: binding; settings: 293T cell lysates
Procedure: (§5) (A) Bone marrow-derived macrophages from either wild-type (WT) or MyD88-deficient (MyD88^−/−) mice were stimulated for the indicated time periods (minutes) with either LPS or CpG, and immunoblots were performed using an antibody that specifically recognizes phosphorylated PKR (PKR-P). B and C Cells were transfected with constructs encoding Flag-tagged TIRAP and either a construct encoding an HA-tagged kinase dead mutant of PKR (HA PKR KD) or p58, as indicated. Antibodies used for immunoprecipitation (IP) or immunoblot (IB) are indicated to the left of each blot, and arrows on the right show the location of the indicated proteins.
To determine whether PKR and TIRAP interact, lysates from 293T cells transfected with either 3.5 μg of an HA PKR kinase dead (KD) mutant […] 1.5 μg of Flag TIRAP were subjected to immunoprecipitation analyses as described above, followed by SDS-PAGE and immunoblotting with the indicated antibodies. The PKR KD mutant rather than wild type PKR was used because overexpressing PKR induces cell death. PKR did, in fact, co-immunoprecipitate with TIRAP (FIG. 4B), further supporting the link between PKR and TIRAP established above.

p58 = test: Co-immunoprecipitation with p58 in 293T cells; type: binding; settings: 293T cell lysates
Procedure: as §5, §1

NF-κB promoter = test: NF-κB-dependent luciferase reporter assay, 293T cells co-transfected with TIRAP constructs; settings: 2.0 μg construct, 24 h post-transfection
Procedure: To determine the effect of various TIRAP constructs on the promoter activity of NF-κB, 293T cells were co-transfected with 2.0 μg of the indicated TIRAP construct and 0.1 μg of an NF-κB-dependent luciferase reporter gene. pcDNA3 is an empty vector control; TIRAP is a vector encoding the full length TIRAP protein; TIRAP N is a vector encoding the N-terminal domain of TIRAP; TIRAP C is a vector encoding the C terminal domain of TIRAP; and TIRAP P125H is a vector encoding a mutant form of TIRAP containing a proline to histidine mutation at amino acid position 125. Cells were harvested 24 h post-transfection and lysed for analysis in a standard luciferase reporter assay. Luciferase activity is expressed as fold induction relative to mock transfected cells (FIG. 2A).

IRAK = IRAK (Homo sapiens, UniProt P51617); test: Association with IRAK; type: binding
TLR4 = biological target: T5, TLR4 (Homo sapiens, UniProt O00206); test: Co-immunoprecipitation with Myc-tagged TLR4 in 293T cells; type: binding; settings: 293T cell lysates, anti-Flag immunoprecipitation
T5 construct: a Myc-tagged TLR4 deletion construct lacking the ectodomain (Myc TLR4 wt); Myc; expressed in transfected cells; host or cells: 293T cells
T5 sequence (O00206 653-839 limits assumed): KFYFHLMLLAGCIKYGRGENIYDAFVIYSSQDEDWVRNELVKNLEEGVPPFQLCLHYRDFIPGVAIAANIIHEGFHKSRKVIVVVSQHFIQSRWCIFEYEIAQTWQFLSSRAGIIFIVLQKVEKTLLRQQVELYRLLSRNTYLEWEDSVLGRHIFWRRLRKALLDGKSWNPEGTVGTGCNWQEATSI
Source text: as §2
as §3, with “experiments. 293T cells were co-transfected with 4.5 μg of a Myc-tagged TLR4 deletion construct lacking the ectodomain (Myc TLR4 wt) or its mutant derivative (Myc TLR4 P714H) in the presence or absence of 1.5 μg of Flag-tagged TIRAP (Flag TIRAP) or its mutant derivative containing the P125H mutation (Flag TIRAP PH).” for “experiments.”

Chain of IRAK (P51617 whole entry, species assumed): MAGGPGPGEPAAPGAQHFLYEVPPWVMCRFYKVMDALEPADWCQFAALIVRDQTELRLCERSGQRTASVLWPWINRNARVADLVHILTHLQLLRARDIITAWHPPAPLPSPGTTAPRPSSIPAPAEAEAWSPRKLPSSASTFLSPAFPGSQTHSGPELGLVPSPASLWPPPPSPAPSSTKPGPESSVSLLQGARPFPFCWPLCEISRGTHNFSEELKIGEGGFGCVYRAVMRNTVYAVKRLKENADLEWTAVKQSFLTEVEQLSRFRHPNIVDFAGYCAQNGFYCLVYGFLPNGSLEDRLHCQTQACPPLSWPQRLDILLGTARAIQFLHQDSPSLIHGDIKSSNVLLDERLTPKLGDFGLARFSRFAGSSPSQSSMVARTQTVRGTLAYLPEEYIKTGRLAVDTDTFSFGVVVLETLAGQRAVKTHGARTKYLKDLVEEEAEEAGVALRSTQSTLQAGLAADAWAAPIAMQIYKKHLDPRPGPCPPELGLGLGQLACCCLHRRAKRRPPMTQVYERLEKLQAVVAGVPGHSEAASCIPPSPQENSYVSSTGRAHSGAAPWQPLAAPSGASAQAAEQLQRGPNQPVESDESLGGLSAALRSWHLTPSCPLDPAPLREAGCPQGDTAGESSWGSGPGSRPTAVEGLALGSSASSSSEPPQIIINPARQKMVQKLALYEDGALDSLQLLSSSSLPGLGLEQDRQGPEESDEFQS
T2 sequence (P58753 1-235 isoform P58753-2): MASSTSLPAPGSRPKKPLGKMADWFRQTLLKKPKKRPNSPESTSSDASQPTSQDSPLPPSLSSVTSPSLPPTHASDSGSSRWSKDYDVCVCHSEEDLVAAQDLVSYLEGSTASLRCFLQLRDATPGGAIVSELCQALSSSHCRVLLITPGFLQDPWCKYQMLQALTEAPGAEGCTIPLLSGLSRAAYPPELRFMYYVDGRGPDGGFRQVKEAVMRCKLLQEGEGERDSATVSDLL
T4 sequence (Q99836 whole entry, species assumed): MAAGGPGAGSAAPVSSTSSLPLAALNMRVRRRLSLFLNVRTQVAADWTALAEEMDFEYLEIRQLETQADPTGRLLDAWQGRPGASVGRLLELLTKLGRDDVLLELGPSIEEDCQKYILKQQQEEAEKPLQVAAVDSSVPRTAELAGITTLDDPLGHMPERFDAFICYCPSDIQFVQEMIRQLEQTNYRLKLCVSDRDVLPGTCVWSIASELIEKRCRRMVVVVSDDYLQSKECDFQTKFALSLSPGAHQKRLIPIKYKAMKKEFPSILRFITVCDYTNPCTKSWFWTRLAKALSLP

Substance: TIRAP: vector encoding the full length TIRAP protein (Toll/Interleukin-1 Receptor Adapter Protein)
- co-immunoprecipitation with PACT (PACT): immunoprecipitate
- co-immunoprecipitation of TIRAP with itself (homodimerization) (TIRAP): can be co-immunoprecipitated with itself
- direct interaction with the TIR domain of TLR4 (TIR domain of TLR4): detected
- interaction with MyD88 (co-immunoprecipitation) (MyD88): does not interact
- co-immunoprecipitation with PKR (PKR): co-immunoprecipitate
- co-immunoprecipitation with p58 (p58): immunoprecipitate
- activation of the NF-κB promoter, luciferase activity as fold induction relative to mock transfected cells (NF-κB promoter): approximately 80 fold induction
- association with IRAK (IRAK): failed to associate
- co-immunoprecipitation with TLR4 (TLR4): co-immunoprecipitate
